Patent publication US20110014200A1

Assays:
[1] = target: gain-of-function TSHR mutant A623I (human) (UniProt P16473); test: cell-based or functional assay
[2] = target: gain-of-function TSHR mutant I486F (human) (UniProt P16473); test: cell-based or functional assay
[3] = target: gain-of-function TSHR mutant I568T (human) (UniProt P16473); test: cell-based or functional assay
[4] = target: gain-of-function TSHR mutant S281I (human) (UniProt P16473); test: cell-based or functional assay
[5] = target: wild-type human thyrotropin receptor (TSHR) (human) (UniProt P16473); test: cell-based or functional assay
[6] = target: wild-type human thyrotropin receptor (TSHR) (human) (UniProt P16473); test: inhibition of 125I-TSH binding to monolayers of cells expressing human TSHR

CS-17 concentration producing half-maximal inhibition (IC50) of constitutive cAMP [1]: 1 µg/mL
CS-17 concentration producing half-maximal inhibition (IC50) of constitutive cAMP [2]: 1 µg/mL
CS-17 concentration producing half-maximal inhibition (IC50) of constitutive cAMP [3]: 1 µg/mL
CS-17 concentration producing half-maximal inhibition (IC50) of constitutive cAMP [4]: 1 µg/mL
CS-17 concentration producing half-maximal inhibition (IC50) of constitutive cAMP [5]: 1 µg/mL
half maximal inhibitory concentration for TSHR constitutive activity (intracellular cAMP) [5]: 6.7 nM
inverse agonist activity at 10 µg/ml (percent) [5]: 60 to 90%
reduction of constitutive activity at 10 µg/ml (percent) [5]: > 60%
percent suppression of TSH binding at 10 µg/ml [6]: 35%
Substance: monoclonal antibody CS-17 (produced by hybridoma CS-17, ATCC accession number PTA-8174)
